Source: patent US20230203471A1, “METHOD AND PLATFORM FOR DISRUPTING INTRACELLULAR MICROTUBULES” (National Tsing Hua University, priority 2021, published 2023)
Blank lines part the entries; values can stand above or below the molecule they belong to.

Assays:
[1] = biological target: intracellular microtubules (MTs)
[2] = biological target: MT-binding domain of ensconsin-cyan fluorescent protein-FKBP-rapamycin binding domain (EMTB-CFP-FRB) (Artificial Sequence); assay: FRET live-cell imaging in co-transfected HeLa cells, 100 nM rapamycin
Sequence of MT-binding domain of ensconsin-cyan fluorescent protein-FKBP-rapamycin binding domain (EMTB-CFP-FRB) (Artificial Sequence) (chain, as listed by the source): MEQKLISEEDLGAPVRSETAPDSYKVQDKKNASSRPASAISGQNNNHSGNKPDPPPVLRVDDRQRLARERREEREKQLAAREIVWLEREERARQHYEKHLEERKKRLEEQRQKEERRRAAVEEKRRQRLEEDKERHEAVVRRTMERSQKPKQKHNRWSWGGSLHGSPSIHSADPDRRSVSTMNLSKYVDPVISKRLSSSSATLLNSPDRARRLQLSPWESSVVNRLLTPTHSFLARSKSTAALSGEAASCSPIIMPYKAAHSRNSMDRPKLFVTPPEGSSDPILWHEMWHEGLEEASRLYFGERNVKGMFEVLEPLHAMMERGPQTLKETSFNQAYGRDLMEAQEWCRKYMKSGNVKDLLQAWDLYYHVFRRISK

[3] = test system: EMTB-YFP-CIBN-labeled MTs in COS7 cells; assay: Blue-light-induced recruitment of Cry2 proteins onto EMTB-YFP-CIBN-labeled MTs and MT disassembly; type: cell-based, African green monkey; conditions: COS7 cells
Experimental: The procedures of photostimulation are as follows. COS7 cells were plated on poly(d-lysine)-coated coverslips and cultured in six-well plates (Thermo Scientific) for 48 hr. Before imaging, cells were incubated with SPY650-tubulin (1000-fold dilution; Spirochrome) at 37° C. for 1 hr. Local photostimulation was carried out with a fluorescence microscope (Nikon) equipped with a digital micromirror device, polygon 400 (MIGHTEX), and a 488-nm light source. Cells were illuminated with the blue light (5 sec on/1 sec off; 1.6 nW/µm^2) for the indicated duration. The mCherry and SPY650-tubulin were simultaneously imaged during photostimulation using Nikon element AR software.
The inventors next tried to use an optogenetic system to trigger MT disassembly in a sub-cellular region of interest during a specific period of time. Cryptochrome 2 (Cry2) (SEQ ID NO:14) and CIBN (N-terminal 170 amino acids of CIB1) (SEQ ID NO:15), two blue light-sensitive dimerizing partners, were used in our MT-manipulating system. Cry2, which was tagged with the red fluorescent protein mCherry (mCh—Cry2), was rapidly translocated onto EMTB—YFP—CIBN-labeled MTs only in regions illuminated with light (T½ = 34.6 ± 7.58 sec) and dissociated from MTs to the cytosol when the light was off (T½ = 28.2 ± 4.88 sec; see FIGS. 6A and 6B).
FIGS. 6A and 6B show using light to disassemble MTs in a reversible and location-specific manner. In FIG. 6A, COS7 cells co-transfected with EMTB—YFP—CIBN and mCh—Cry2 (red) were incubated with SPY650-tubulin (SPY650-tub) to visualize MTs; the cells were illuminated by blue light within a specified region (indicated by the dotted circle) for the indicated time period; scale bar, 10 µm.
The inventors then used light to control spastin-mediated MT disassembly in a spatially and temporally specific manner. dNSpastin3Q tagged with mCh-Cry2 was co-expressed with EMTB—YFP—CIBN in COS7 cells. MTs were labeled with SPY650-tubulin in these experiments.
FIGS. 6C and 6D show using light to disassemble MTs in a reversible and location-specific manner. In FIG. 6C, COS7 cells co-transfected with EMTB-YFP-CIBN and dNSpastin3Q-mCh—Cry2 were incubated with SPY650-tubulin to visualize MTs; the cells were illuminated by blue light as in FIG. 6A; scale bar, 10 µm. […] Data are shown as the mean ± S.E.M.

[4] = biological target: EMTB-YFP-CIBN (Artificial Sequence); assay: live-cell imaging in co-transfected COS7 cells, local blue light
Sequence of EMTB-YFP-CIBN (Artificial Sequence) (chain, as listed by the source): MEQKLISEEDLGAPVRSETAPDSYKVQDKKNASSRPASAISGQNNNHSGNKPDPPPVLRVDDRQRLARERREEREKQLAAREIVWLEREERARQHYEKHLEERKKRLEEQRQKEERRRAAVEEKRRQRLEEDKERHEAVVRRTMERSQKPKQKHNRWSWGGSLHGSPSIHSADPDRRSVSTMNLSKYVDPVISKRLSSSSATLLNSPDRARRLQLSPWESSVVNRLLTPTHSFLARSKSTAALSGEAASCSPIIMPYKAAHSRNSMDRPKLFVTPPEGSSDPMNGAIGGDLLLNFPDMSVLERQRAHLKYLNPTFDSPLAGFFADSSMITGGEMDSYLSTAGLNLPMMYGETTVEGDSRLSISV

[5] = biological target: EMTB-YFP-CIBN (Artificial Sequence); assay: live-cell imaging in co-transfected COS7 cells, after blue light
spastin = biological target: T1, spastin (Mus musculus, UniProt Q9QYY8, K308Q/K309Q/K310Q); assay: Reversal of MT disruption by spastin inhibition and MT regrowth in HeLa cells; type: cell-based; conditions: regrowth in cytosol (acentrosome) after spastazoline
T1 construct: expressed in transfected cells; host or cells: HeLa (CCL-2)
T1 sequence (Q9QYY8 with tags, fused parts or gaps K308Q/K309Q/K310Q): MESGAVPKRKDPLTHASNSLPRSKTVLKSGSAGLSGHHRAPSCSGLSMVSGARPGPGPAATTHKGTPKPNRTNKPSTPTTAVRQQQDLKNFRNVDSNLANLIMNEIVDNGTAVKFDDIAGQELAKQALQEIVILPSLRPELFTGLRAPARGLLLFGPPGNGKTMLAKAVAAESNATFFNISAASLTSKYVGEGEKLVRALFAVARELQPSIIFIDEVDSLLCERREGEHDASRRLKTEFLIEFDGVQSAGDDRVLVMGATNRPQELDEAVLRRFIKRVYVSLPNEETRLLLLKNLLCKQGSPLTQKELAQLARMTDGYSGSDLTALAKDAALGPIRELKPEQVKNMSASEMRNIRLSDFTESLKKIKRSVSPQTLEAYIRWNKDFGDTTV
Experimental: FIGS. 2S to 2U show inhibition of spastin activity reverses MT disruption. In FIG. 2S, HeLa cells co-transfected with EMTB—CFP—FRB (black) and dNSpastin3Q-YFP-FKBP (green) were pre-treated with rapamycin for 28 min to induce acute MT disassembly; spastazoline (10 µM), a spastin inhibitor, was then added to the cultures to halt the MT disruption system; arrows indicate the centrosome-derived MTs; scale bar, 10 µm. […] Data (red) are shown as the mean ± SD. A Student’s t-test was performed to generate the indicated p-value.
Intriguingly, nascent MTs from the fragments derived from dNspastin3Q-mediated cleavage assembled at a polymerization rate of 0.92 ± 0.04 µm/sec, which was slightly slower than the regrowth rate of 1.17 ± 0.07 µm/sec for MTs from centrosomes (see FIG. 2U). […] In particular, microtubule filaments are composed of microtubule molecules. If they are only disassembled into microtubule molecules and the raw materials are still there, they would have the opportunity to quickly assemble them back. But if the microtubule molecules are degraded and the raw materials are gone, they can’t be quickly reassembled. In summary, rapid recruitment of dNSpastin3Q-YFP-FKBP onto MTs efficiently triggered MT disassembly in living cells upon dimerization induction.

[6] = test system: mitotic spindles and intercellular bridges in HeLa cells; assay: Disruption of mitotic spindles and intercellular bridges in synchronized HeLa cells; type: cell-based; conditions: CFP-FRB-MAP4m, rapamycin 100 nM
Experimental: The procedures of cell synchronization are as follows. Plasmid DNA (i.e., DNA construct) transfection was carried out 20-24 hr prior to cell cycle synchronization. For synchronization, HeLa cells were treated with 2 mM thymidine (Sigma) for 16-18 hr to induce arrest at G1/S phase and then were treated with 2.5 ng/ml RO3306 (a selective ATP-competitive inhibitor of CDK1)(Sigma) for 12 hr to induce arrest at G2/M phase. After being washed with warm DMEM, cells were incubated with DMEM and 10% FBS at 37° C., 5% CO2 for 30-60 min to enrich the population of metaphase and telophase cells.
FIGS. 5K to 5N show rapid disruption of mitotic spindles and intercellular bridges. In FIG. 5K, HeLa cells co-transfected with H2B—mCherry (H2B—mCh; a chromosome marker; red), CFP—FRB—MAP4m (a marker of mitotic spindles; blue), and dNSpastin3Q-YFP-FKBP (green) were synchronized in metaphase and treated with rapamycin (100 nM) to induce dNSpastin3Q-YFP-FKBP recruitment to mitotic spindles; scale bar, 10 µm. In FIG. 5L, HeLa cells co-transfected with H2B—mCherry (red), CFP—FRB—MAP4m (intercellular bridges; blue), and dNSpastin3Q-YFP-FKBP (green) were treated with rapamycin (100 nM) to induce dNSpastin3Q-YFP-FKBP recruitment to intercellular bridges; arrows indicate the intercellular bridges; scale bar, 10 µm. […] Data are shown as the mean ± S.E.M. Dotted lines indicate the cell boundaries.

[7] = test system: ciliary axonemes and primary cilia in NIH3T3 cells; assay: Disruption of primary cilia in serum-starved NIH3T3 cells (live-cell imaging); type: cell-based, mouse; conditions: G0 NIH3T3 cells, CFP-FRB-MAP4m, rapamycin 100 nM
Experimental: The procedures of cell culture and transfection are as follows. African green monkey kidney cell line COS7 (CRL-1651), cervical cancer cell line HeLa (CCL-2), human osteosarcoma cell line U2OS (HTB-96), human embryonic kidney cell line HEK293T (CRL-3216), and mouse embryonic fibroblasts NIH3T3 cells (CRL-1658) were maintained at 37° C., 5% CO2, and 95% humidity in Dulbecco’s modified Eagle’s medium (DMEM) supplemented with 10% fetal bovine serum (FBS), and penicillin and streptomycin (Corning). To induce ciliogenesis, NIH3T3 cells were serum starved for 24 hr. COS7 cells were transfected with plasmid DNAs by using TurboFect transfection reagents (Thermo Fisher). HeLa, U2OS, HEK293T, and NIH3T3 cells were transfected with FuGENE HD (Promega). Transfected cells were incubated for 24-48 hr prior to imaging and other experiments.
The procedures of live-cell imaging are as follows. Live transfected cells cultured on poly(d-lysine)-coated glass coverslips (Hecht Assistent) were treated with either 100 nM rapamycin for rapid induction of protein dimerization and translocation or MT-targeting agents (10 µM nocodazole or 500 µM colchicine) during imaging. Live-cell imaging was conducted on a Nikon T1 inverted fluorescence microscope (Nikon) with a 60× oil objective (Nikon), a Prime camera (Photometrics), and 37° C., 5% CO2 heat stage (Live Cell Instrument). […]

[8] = test system: centrosomes in HeLa cells; assay: Effect of MT disruption treatment on PACT-labeled centrosomes in HeLa cells; type: cell-based; conditions: MT disruption treatment for 1 hr
Experimental: In FIG. 5O, HeLa cells co-transfected with EMTB—CFP—FRB (blue), dNSpastin3Q-YFP-FKBP (green), and PACT-mCh (a centrosomal marker; red) were treated with rapamycin (100 nM) and imaged; dotted lines indicate the cell boundary; insets show higher-magnification images of the centrosome regions; scale bar, 10 µm. […] Data are shown as the mean ± S.E.M.

half time of MT disruption (MT filament area) [1]: 53.1 min
T½ of translocation [2]: 55.4 s
Molecule: dNSpastin-YFP-FKBP-C2 domain of Lactadherin (dNSpastin-YFP-FKBP-C2Lact) (enzyme)

T½ of translocation onto MTs under light [4]: 34.6 s
T½ of dissociation from MTs when the light was off [5]: 28.2 s
B1: Cry2 tagged with the red fluorescent protein mCherry (mCh-Cry2) (protein)
chain: MKMDKKTIVWFRRDLRIEDNPALAAAAHEGSVFPVFIWCPEEEGQFYPGRASRWWMKQSLAHLSQSLKALGSDLTLIKTHNTISAILDCIRVTGATKVVFNHLYDPVSLVRDHTVKEKLVERGISVQSYNGDLLYEPWEIYCEKGKPFTSFNSYWKKCLDMSIESVMLPPPWRLMPITAAAEAIWACSIEELGLENEAEKPSNALLTRAWSPGWSNADKLLNEFIEKQLIDYAKNSKKVVGNSTSLLSPYLHFGEISVRHVFQCARMKQIIWARDKNSEGEESADLFLRGIGLREYSRYICFNFPFTHEQSLLSHLRFFPWDADVDKFKAWRQGRTGYPLVDAGMRELRATGWMHNRIRVIVSSFAVKFLLLPWKWGMKYFWDTLLDADLECDILGWQYISGSIPDGHELDRLDNPALQGAKYDPEGEYIRQWLPELARLPTEWIHHPWDAPLTVLKASGVELGTNYAKPIVDIDTARELLAKAISRTREAQIMIGAA
T½ of translocation onto EMTB-YFP-CIBN-labeled MTs in illuminated regions ([3]; blue light on): 34.6 ± 7.58 s
T½ of dissociation from MTs to the cytosol ([3]; light off): 28.2 ± 4.88 s
light-induced MT disassembly ([3]; local blue light illumination, SPY650-tubulin): did not lead to MT disassembly

polymerization rate of nascent MTs from fragments derived from cleavage (spastin): 0.92 ± 0.04 µm/sec
B2: dNSpastin3Q: truncated spastin with three residues mutated to three glutamines, SEQ ID NO:6; used as tagged fusions (protein)
chain: T1 sequence (Q9QYY8 with tags, fused parts or gaps K308Q/K309Q/K310Q)
modifications: dNSpastin3Q
notes: used as tagged fusions
disruption of mitotic spindles and intercellular bridges [6]: quickly disrupted these MT-based structures
time to disassembly of axonemes and primary cilia [7]: ≤ 15 min
disruption of centrosomes [8]: did not disrupt centrosomes
